# Laboratory results reported in the nanobody polyreactivity screen of Harvey et al. (2022).
# Assay: yeast display, Sf9 membrane polyspecificity reagent, FACS + sequencing; frameworks hold sequencing errors
# Outline: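 Galactose induction of a Saccharomyces cerevisiae BJ5465 synthetic nanobody display library ran 36–48 hours. The cells were then stained for 1 hour at 4 °C with 10% biotinylated, detergent-solubilized Sf9 membrane reagent, pulled down on streptavidin microbeads and FACS-sorted into low and high (top ~1%) gates on expression and reagent-binding fluorescence. Labels for polyreactivity follow the gate of origin.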
row,Sequence,polyreactivity (PSR sort gate)
1,QVQLVESVGGLVQAGGSLRLSCAASGIFVDNAMGWYRQAPGTETELVAPITSSTDSTYYADSVKGRFTISRDNAKNTVALQMNSLKPEDTAVYYCAVARPGGFYFLVHYGYGYWGQGTQVTVSS,low polyreactivity
2,QVQLVESVGGLVQAGGSLRLSCAASGIIFSCYAMGWYRQAPGKERELVAAISSSGGTTFYADSVKGRFTISRDNAKNTVYLQMNSLKPVDTAVYYCAVVGPPYYTWRVWRPAYDYWGQGTQVTVSS,high polyreactivity
3,QVQLVESVGGLVQAGGSLRLSCAASGITFLQYAMGWYIQAPGKERELVATINSGGSTNYADSVKGRFTISRDNAKNTVYLQMNSLKPEDTAVYYCAADYGSDYTKGDYWGQGTQVTVSS,low polyreactivity
4,QVQLVESVGGLVQAGGSLRLSCAASGITFNRYAMGWYRQAPGKERELVAAITGGGSRTFYADSVKGRFTISGDNAKNTVDLQMNSLKPEDTAVYYCAKGLSTGRAYRGYDYWGQGTQVTVSS,high polyreactivity
5,QVQLVESVGGLVQAGGSLRLSCAASGITFRYYAMGWYRQAPGKERELVADINRGSDTNYADSVKGRFTISRDNAKNTVYLQMNSLKPEDTAVYYCAARSFRSRFRLYIVEFGGYDYWGQGTQVTVSS,low polyreactivity
6,QVQLVESVGGLVQAGGSLRLSCAASGLIFATYAMGWYRQAPGKESELVADITTTGSTYYADSVKGRFTISRDNAKNTDYLQMNSLKPEATAVYYCAAYCRLLSGYDFDYWGKGTQVTVSS,high polyreactivity
7,QVQLVESVGGLVQAGGSLRLSCAASGLTSGLNAMGWYRQAPGKERELVATIRTNGGSTYYADSVKGRFTISRDNAKNTVYLQMNSLKPEDTAVYYCAADSVLDRPVLYLWPWYLGDYWGQGTQVTVSS,low polyreactivity
8,QVQLVESVGGLVQAGGSLRLSCAASGNNFDIYDMGWYRQAPGKERELVAAISSGGSTYYADSVKGRFTISRDTAKNTVYFQMNSLKPEDSAVYYCAESRVGYYRYEYWGQGTQVTVSS,low polyreactivity
9,QVQLVESVGGLVQAGGSLRLSCAASGNTFSYNAMGWYRQAPGKERELVAAIRWSGGSTYYADSVKGRFTISRDNAKNTVYLQMNSLKPEDTAVYYCNARYASTNYGWFSYYWGQGTQVTVSS,high polyreactivity
10,QVQLVESVGGLVQAGGSLRLSCAASGRIFAVYAMGWYRQAPGKEREFVAAISYSGGITYYADSVKGRFTISRDNAKNTVYLQMNSLKPEDTAVYYCNAYYYFWGQGTQVTVSS,low polyreactivity
11,QVQLVESVGGLVQAGGSLRLSCAASGRIFHWYAMGWYRQAPGKERELVAAIRWTGGSTYYADSVKGRFTISRDNAKNTVYLQMNSLKPEDTAVYYCAAKGYTGIFYEMDYWGQGTQVTVSS,low polyreactivity
12,QVQLVESVGGLVQAGGSLRLSCAASGRIFTSYAMGWYRQAPGKERELVAAIRFNGDSTYYADSVKGSFTISRDNAKNTVYLQMNSLKPEDTAVYYCAASRYRGSFRYTEYYWGQGTQVTVSS,high polyreactivity
13,QVQLVESVGGLVQAGGSLRLSCAASGRIFVNAMGWYRPAPGKESEVVAAINTRGGSTYYADSVKGRFTISRDNAKNTVYLQLNSLKPEDTAVYYCAARFYTSSRYNYWGQGTQGTVSS,high polyreactivity
14,QVQLVESVGGLVQAGGSLRLSCAASGRIFWKYTMGWYRQAPGKERELVAAIRSAGGSTYYADSVKGRFTISRDNAKNTVYLQMNSLKPEDTAVYYCAAEPSQRYPLSGYYYWGQGTQVTVSS,low polyreactivity
15,QVQLVESVGGLVQAGGSLRLSCAASGRIFYKNVMGWYRQAPRKERELVAAISTSTGRTYYADSVNGRFTISRDNAKNTVYLQMNSLKPEDTAVYYCNAVRGLTNGVLYRYDYWGQGTQVTVSS,high polyreactivity
16,QVQLVESVGGLVQAGGSLRLSCAASGRIFYNYVMGWYRQAPGKERELVAAISSDGGRTYYADSVKGRFTISRDNAKNTVYLQMNSLKPEDTAVYYCAAEWPYGGNGPGHTYEYWGQGTQVTVSS,high polyreactivity
17,QVQLVESVGGLVQAGGSLRLSCAASGRIIRWYAMGWYRQAPGKERELVAAISGSGGSTYYADSVKGRFTISRDNAKNTVYLQMNSLKPEDTAVYYGAAGYYLRRYYYWGQGTQVTVSS,high polyreactivity
18,QVQLVESVGGLVQAGGSLRLSCAASGRTFGHYAMGWYRQEPGKERELVAAITSRGGSTNYADSVKGRFTISRDNAKNTVYLQMNSLKPEDTAVYYCAADTLIPDYSATFGYWGEGTQVTVSS,high polyreactivity
19,QVQLVESVGGLVQAGGSLRLSCAASGRTFRAYAMGWYRQEPGKERELVAAIRWGGGRTYYADSVKGRFTISRDNAKYTVYLQMNSLKPEDTAVYYCAADRTYDYDYWGQGTLVTVSS,high polyreactivity
20,QVQLVESVGGLVQAGGSLRLSCAASGRTFWWYTMGWYRQAPGKERELVAVISSTGGRTYYADSVKGSFTISRDNAKNTVYLQMNSLKPEDTAVYYCAAEYVSAKWEYGYWGQGTQVTVSS,low polyreactivity

row,Sequence,polyreactivity (PSR sort gate)
1,QVQLVESVGGLVQAGGSLRLSCAASGSIFADYAMGWYRQAPGKERELVAAMTGSGGRTYYADSVKGRFTISRDNAKNTVYLHMNSLKPEDTAVYYCAAYQVGWDPYPRYDYWGQGTQVTVSS,low polyreactivity
2,QVQLVESVGGLVQAGGSLRLSCAASGSIFDYNGMGRYRQAPGKERELVATITLSTARTYYADSVKGRFTISRDNAKNTVYLQMNSLKPEDTAVYYCATRYPKFRRRNYWGQGTQVTVSS,high polyreactivity
3,QVQLVESVGGLVQAGGSLRLSCAASGSIFFTYTMGWYRQAPGKERELVAAISSGGITNYADSVKGRFTISRDNAKKTVYFQMNSLKPEDTAVYYCAVDGGEFSSYGYWGQGTQVTVSS,low polyreactivity
4,QVQLVESVGGLVQAGGSLRLSCAASGSIFQPYAMGWYRHAPGKEREFVAAISRSGGITYYADSVKGRFTISRDNAKNTVYLQMNSLKPEDTAVYYCATGRQVVRSYSEGDYCGQGTQVTVSS,low polyreactivity
5,QVQLVESVGGLVQAGGSLRLSCAASGSIFSYYAMGWYRQAPGKERELVAAITISGSSTYYADSVKGRFTISRDNAKNTVYLQMNSLKPEDTAVYYCNARTIRNWSGQHIYDYWGQGTQVTVSS,high polyreactivity
6,QVQLVESVGGLVQAGGSLRLSCAASGSIFVKYAMGWYRQAPGKECEMVPAISGSGGSTYYADSVKGRFTISRDNAKNTVYLQMNSLKQEDTAVYYCAADDYFYAGTLPGWWYDYWGQGTQVTVSS,low polyreactivity
7,QVQLVESVGGLVQAGGSLRLSCAASGSIFVRNAMGWYRQAPGKERELVAGISRSGGSTNYADSVKGRFTISRDNAKNTVYLQMNSLKPEDTAVYYCAASRLVWVGRPWYQVRGDYWGQGTHVTVSS,high polyreactivity
8,QVQLVESVGGLVQAGGSLRLSCAASGSIFYYNTMGWYRQAPGKVRELVATISSDGGTNYADSVKGRFTISRDNAKNTVYLQMNSLKPEDTAVYYCAAAVSPYSYWPGFDYWGQGTQVTVSS,low polyreactivity
9,QVQLVESVGGLVQAGGSLRLSCAASGSMFKVYAMGWYRQAPGKEREFVAAITSSDSNTNYADSVKGRFTISRDNAKNTVYLQMNSLKPEDTAVYYCNKDGGGDSYWYDYWGQGTQVTVSS,low polyreactivity
10,QVQLVESVGGLVQAGGSLRLSCAASGSNFGSYAMGWYRQAPGKERSTYYADSVKGRFTISRDNAKNTVYLQMNSLKPEDTAVYYCAADTYGYQGSAGGHWGQGTQVTVSS,low polyreactivity
11,QVQLVESVGGLVQAGGSLRLSCAASGSTFAFNAMGWYRQAPGKEREFVAAITWRGGSTYYADSVKGRFTISRDNAKNTVYLQMNSLKPEDTAVYYCARRPGYALTWRVSGRYDYWGQGTQVTVSS,high polyreactivity
12,QVQLVESVGGLVQAGGSLRLSCAASGSTFKAYAVGWYRQAPGKEGELVAAITKSGGRTYYADSVKGRFTISLDNAKNTVYLQMNSLKPEDTAVYYCAAVFRPDSSAFRYYYWGQGTQVTVSS,high polyreactivity
13,QVQLVESVGGLVQAGGSLRLSCAASGSTFVDYAMGWYRQAPGKERELVAGINGSGGSTYYADSVKGRFTISRDNAKNTVYLQMNSLKPEDTAVYYCNARNPWRKRSQGYSWGQGTQVTVSS,low polyreactivity
14,QVQLVESVGGLVQAGGSLRLSCAASGSTFYRYAMGWYRQAPGKERELVAAISSDGTTYYADSVKGRFTISRDNAKNTVYLQLNSLKPEDTAVYYCAKRGYYRSRRYDYWGQGTLVTVSS,high polyreactivity
15,QVQLVESVGGLVQAGGSLRLSCAASGSTYDHNAMGWSRHAPGKERELVAAISSDGSTNYADSVKGRFTISRDNAKNTVYLQMNSLKPEDTGVYYCNADGVYLGDYEYWGQGTQVTVSS,low polyreactivity
16,QVQLVESVGGLVQAGGSLRLSCAASGSTYPYYAMGWYRQAPGKERELVAASTSGGSTNYADSVKGRFTISRDNAKNTVYLQMNSLKPEDTSVYYCATDWSVDLWTWYYYWGQGTQVTVSS,high polyreactivity
17,QVQLVESVGGLVQAGGSLRLSCAASGYTFFYAMGWYRQAPGKERELVASITSAASTTYADSVKGRFTISRDNAKNTVYLQMNSLKPEDTAVYYCAASHSWWFYPGYYYWGQGTQVTVSS,high polyreactivity
18,QVQLVESVGGLVQAGGSLRLSCAASVRTFSSYAMGWYRKPPGKERELVAVITSGSSTHYADSVKGRFTISRDNAKNTVYLQMNSLKPEDTAVYYCAARDIREIDCISYWYDYWGQGTQVTVSS,high polyreactivity
19,QVQLVESVGGLVQAGGSLRLSCAASVYTFPRYTMGWYRQAPGKERELVAAINWSGGSTYYADSVKRRFTISRDNAKNTVYLQMNSLKPEDTAVYYCNKAYVSRYDYWGQGTQVTVSS,high polyreactivity
20,QVQLVESVGGLVQAGGSLRLSCAATGFILAPYAMGWYRQSPGKETELVAAITRSGGITYYADSVKGRFTISRDNAKNTVYLQMNSLKPEDTAVYYCAARNYRYRYARAYDYWGQGTQVTVSS,high polyreactivity
